For 14 substances, EC50 of Ca2+ mobilization in THP-1 cells results are on record in publication PMC2692298.

In assay [1] the target is CXCR4 on THP-1 cells (human (endogenous in THP-1)) (UniProt P61073).
The target is the same in assay [2]. The source holds these as a separate data set.

Where two headings read alike, the source gives them in different places.

CXCR4 on THP-1 cells (human (endogenous in THP-1)), sequence (P61073 whole entry): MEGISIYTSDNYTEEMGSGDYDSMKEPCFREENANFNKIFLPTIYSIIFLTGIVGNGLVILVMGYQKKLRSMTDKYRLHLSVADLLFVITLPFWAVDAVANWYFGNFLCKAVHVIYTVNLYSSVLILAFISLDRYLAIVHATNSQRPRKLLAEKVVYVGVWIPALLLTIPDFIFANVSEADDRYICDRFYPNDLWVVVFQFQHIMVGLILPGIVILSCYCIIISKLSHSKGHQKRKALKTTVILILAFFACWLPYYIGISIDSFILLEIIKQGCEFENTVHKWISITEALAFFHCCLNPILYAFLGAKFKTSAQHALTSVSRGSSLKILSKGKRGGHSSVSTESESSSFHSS
SDF-1 Lys27Ala, sequence (P48061 22-93 K48A): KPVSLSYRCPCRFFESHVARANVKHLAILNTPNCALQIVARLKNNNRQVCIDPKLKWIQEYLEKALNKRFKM
SDF-1 Lys27Glu, sequence (P48061 22-93 K48E): as the sequence (P48061 22-93 K48A) above, with A27E counted along it
SDF-1 Lys64Ala, sequence (P48061 22-93 K64A): as the sequence (P48061 22-93 K48A) above, with A27K, K43A counted along it
SDF-1 Arg47Glu, sequence (P48061 22-93 R68E): as the sequence (P48061 22-93 K48A) above, with A27K, R47E counted along it
SDF-1 Glu63Ala, sequence (P48061 22-93 E84A): as the sequence (P48061 22-93 K48A) above, with A27K, E63A counted along it
SDF-1 Arg47Ala, sequence (P48061 22-93 R68A): as the sequence (P48061 22-93 K48A) above, with A27K, R47A counted along it
SDF-1 Val49Ala, sequence (P48061 22-93 V70A): as the sequence (P48061 22-93 K48A) above, with A27K, V49A counted along it
SDF-1 Glu60Ala, sequence (P48061 22-93 E81A): as the sequence (P48061 22-93 K48A) above, with A27K, E60A counted along it
SDF-1 Val39Ala, sequence (P48061 22-93 V39A): as the sequence (P48061 22-93 K48A) above, with V18A, A27K counted along it

On to “SDF1(H25R) (from UniProt P48061 22-93) (ligand)”, for which the EC50 of Ca2+ mobilization in THP-1 cells in assay [1] is 5.1 nM.

“SDF1(L36C/A65C), covalently-locked symmetric dimer (from UniProt P48061 22-93) (ligand)”: the EC50 of Ca2+ mobilization in THP-1 cells in assay [2] turned out to be 12.9 nM.

On to “SDF-1 Arg20Ala (from UniProt P48061 22-93) (ligand)”, for which the EC50 of Ca2+ mobilization in THP-1 cells in assay [1] was 4.3 nM.

For the substance “SDF-1 Arg41Ala (from UniProt P48061 22-93) (ligand)”, the EC50 of Ca2+ mobilization in THP-1 cells in assay [1] came to 4.3 nM.

Regarding “SDF-1 Arg47Ala (from UniProt P48061 22-93) (ligand)”, the EC50 of Ca2+ mobilization in THP-1 cells in assay [1] came to 14.1 nM.

Substance “SDF-1 Arg47Glu (from UniProt P48061 22-93) (ligand)” yielded an EC50 of Ca2+ mobilization in THP-1 cells in assay [1] of 654 nM.

Take “SDF-1 Glu60Ala (from UniProt P48061 22-93) (ligand)”: in assay [1], the EC50 of Ca2+ mobilization in THP-1 cells stood at 4.1 nM.

“SDF-1 Glu63Ala (from UniProt P48061 22-93) (ligand)” had an EC50 of Ca2+ mobilization in THP-1 cells in assay [1] of 3.7 nM.

The substance “SDF-1 Lys27Ala (from UniProt P48061 22-93) (ligand)” showed an EC50 of Ca2+ mobilization in THP-1 cells in assay [1] of 10.1 nM.

In assay [1], “SDF-1 Lys27Glu (from UniProt P48061 22-93) (ligand)” registered an EC50 of Ca2+ mobilization in THP-1 cells of 16.8 nM.

“SDF-1 Lys64Ala (from UniProt P48061 22-93) (ligand)”: in assay [1], the EC50 of Ca2+ mobilization in THP-1 cells is 5 nM.

For “SDF-1 Val39Ala (from UniProt P48061 22-93) (ligand)”, the EC50 of Ca2+ mobilization in THP-1 cells in assay [1] turned out to be 27.1 nM.

Take “SDF-1 Val49Ala (from UniProt P48061 22-93) (ligand)”: the EC50 of Ca2+ mobilization in THP-1 cells in assay [1] is 8.6 nM.

The substance “stromal cell derived factor-1 (SDF-1, also known as CXCL12), wild type (from UniProt P48061 22-93) (ligand)” returned an EC50 of Ca2+ mobilization in THP-1 cells in assay [1] of 3.6 nM.
